Source: article PMC10941009, “Structural basis for specific DNA sequence recognition by the transcription factor NFIL3” (The Journal of Biological Chemistry, 2024)

Key:
Experiment in all cases: ITC; ITC: 20 mM Tris pH 7.5, 150 mM NaCl, 25 °C; EMSA: same buffer, 4 °C, 6% native gel in 0.5x TBE
Details in all cases: protein: recombinant; tags: His6-SUMO removed by TEV; chain copies: 2; blunt
NFIL3 N112D = biological target: T1, NFIL3 N112D (human, UniProt Q16649 65-161, N112D)
T1 sequence: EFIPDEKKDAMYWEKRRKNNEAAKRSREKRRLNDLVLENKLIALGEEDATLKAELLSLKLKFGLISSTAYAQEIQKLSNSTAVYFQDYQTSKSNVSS

NFIL3 E78G = biological target: T2, NFIL3 E78G (human, UniProt Q16649 65-161, E78G)
T2 sequence: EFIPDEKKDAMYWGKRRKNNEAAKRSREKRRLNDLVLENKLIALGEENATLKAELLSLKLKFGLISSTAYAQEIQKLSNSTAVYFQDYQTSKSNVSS

NFIL3 E111Q = biological target: T3, NFIL3 E111Q (human, UniProt Q16649 65-161, E111Q)
T3 sequence: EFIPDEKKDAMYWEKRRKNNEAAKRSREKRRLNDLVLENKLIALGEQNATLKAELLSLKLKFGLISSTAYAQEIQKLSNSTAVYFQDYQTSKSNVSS

NFIL3 R95Q = biological target: T4, NFIL3 R95Q (human, UniProt Q16649 65-161, R95Q)
T4 sequence: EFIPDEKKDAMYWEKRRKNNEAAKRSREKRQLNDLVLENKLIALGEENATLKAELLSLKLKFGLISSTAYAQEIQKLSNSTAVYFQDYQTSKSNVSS

NFIL3 A113T = biological target: T5, NFIL3 A113T (human, UniProt Q16649 65-161, A113T)
T5 sequence: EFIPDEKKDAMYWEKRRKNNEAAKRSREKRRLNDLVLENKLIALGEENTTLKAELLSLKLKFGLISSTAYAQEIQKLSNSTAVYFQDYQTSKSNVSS

NFIL3 A113V = biological target: T6, NFIL3 A113V (human, UniProt Q16649 65-161, A113V)
T6 sequence: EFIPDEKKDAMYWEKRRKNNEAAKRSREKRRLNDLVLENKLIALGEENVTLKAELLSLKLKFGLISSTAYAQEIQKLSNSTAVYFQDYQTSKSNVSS

NFIL3 N84A = biological target: T7, NFIL3 N84A (human, UniProt Q16649 65-161, N84A)
T7 sequence: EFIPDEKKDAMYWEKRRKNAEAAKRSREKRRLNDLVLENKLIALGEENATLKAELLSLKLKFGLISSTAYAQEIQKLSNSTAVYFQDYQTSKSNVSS

NFIL3 R94H = biological target: T8, NFIL3 R94H (human, UniProt Q16649 65-161, R94H)
T8 sequence: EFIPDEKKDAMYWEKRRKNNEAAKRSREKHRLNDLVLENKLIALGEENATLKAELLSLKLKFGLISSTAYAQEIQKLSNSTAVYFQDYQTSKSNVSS

NFIL3 E111D = biological target: T9, NFIL3 E111D (human, UniProt Q16649 65-161, E111D)
T9 sequence: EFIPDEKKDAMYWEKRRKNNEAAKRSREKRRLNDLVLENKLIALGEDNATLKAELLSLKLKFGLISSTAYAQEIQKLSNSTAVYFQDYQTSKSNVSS

C/EBPβ E309D = C/EBPβ E309D (human, UniProt P17676 259-336, E309D)
C/EBPα D320E = C/EBPα D320E (human, UniProt P49715 281-340, D320E)
Sequence of C/EBPα D320E (P49715 281-340 D320E): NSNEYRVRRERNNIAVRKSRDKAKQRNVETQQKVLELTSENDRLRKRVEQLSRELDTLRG

Sequence of C/EBPβ E309D (P17676 259-336 E309D): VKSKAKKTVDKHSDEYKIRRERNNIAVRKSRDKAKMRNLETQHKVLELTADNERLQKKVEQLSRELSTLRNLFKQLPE

B1: TTACGTAA (dsDNA)
DNA 1: CATTACGTAATG
DNA 2: CATTACGTAATG
Work on B1 yielded a Kd (NFIL3 N112D) of 2.15 ± 0.16 µM, a Kd (NFIL3 E78G) of 2.18 ± 0.15 µM and a Kd (NFIL3 E111Q) of 0.2 ± 0.02 µM. The Kd (NFIL3 R95Q) was 8.4 ± 0.72 µM, the Kd (NFIL3 A113T) was 0.22 ± 0.03 µM and the Kd (NFIL3 A113V) was 0.12 ± 0.01 µM. It also gave a Kd (NFIL3 N84A) of 1.49 ± 0.11 µM, a Kd (NFIL3 R94H) of 4.01 ± 0.74 µM and a binding signal (NFIL3 E111D) of roughly 8 fold weaker than WT. For the same binder, the binding signal (C/EBPβ E309D) was roughly 4 fold weaker than WT and the binding signal (C/EBPα D320E) was roughly 5 fold stronger than WT.
